In US9580464B2, “Anti-inflammatory proteins and peptides and methods of preparation and use thereof” (ManukaMed Limited, priority 2012, dated 2017):
One block for each molecule: values may come before it.

Key:
Cathepsin B = Cathepsin B (Bos taurus, UniProt P07688); assay: Cathepsin B digestion of MGO-modified MRJP, native PAGE; type: biochemical; settings: 37° C.
Method: Cathepsin B working reagent solution was prepared (1:50) from Cathepsin B stock solution in the buffer system containing 100 mM sodium acetate, 2 mM EDTA and 2.5 mM 2-mercaptoethanol, pH 5.0.
Cathepsin digestion was performed on selected samples of SEC fractions. Typically, 10 μl of Cathepsin B working solution was mixed with 20 μl of protein sample and digested at 37° C. for overnight. After hydrolysis, the digests were prepared for native PAGE analysis.
Samples used in the Cathepsin B digestion were: 1) Crude MRJP protein; 2) Desalted fraction (first big peak) of MGO-modified MRJP at pH 4.0 for 9 days sample; 3) Desalted fraction (first big peak) of MGO-modified MRJP in PBS (pH 7.5) for 9 days sample; 4) SEC fractions of pH 5.0 fractions; 5) SEC fractions of reaction 221.
For hydrolysis, 10 μL of a 1 mg/mL solution (10 μg) of Cathepsin B was used. Thus, a very high level of enzyme activity was employed for these experiments. Moreover, the reaction was performed over two days at 37° C. Under these conditions, we expected to see complete or near complete hydrolysis of the MRJP proteins.

[1] = Anti-inflammatory activity of MGO-modified proteins (results not shown)
Excerpt: As used herein, “anti-inflammatory capacity” is defined as the capacity to clinically reduce inflammation or the symptoms of inflammation in cellular tissue. Anti-inflammatory capacity may be determined using the phagocytosis inhibition assay (PIA) described in PCT/NZ PCT/NZ/2011/000271 or the DCFDA assay also described in PCT/NZ/2011/000271 or the anti-inflammatory capacity may also be determined by the inhibition of Cathepsin B as described in detail below.

Hydrolysis by Cathepsin B (Cathepsin B): readily degraded
B1: native hexamer form of MRJP1: unmodified major royal jelly protein 1 (SEQ ID NO: 1), about 300 kDa hexamer (protein, listed as Apis mellifera)
chain: MTRLFMLVCLGIVCQGTTGNILRGESLNKSLPILHEWKFFDYDFGSDERRQDAILSGEYDYKNNYPSDIDQWHDKIFVTMLRYNGVPSSLNVISKKVGDGGPLLQPYPDWSFAKYDDCSGIVSASKLAIDKCDRLWVLDSGLVNNTQPMCSPKLLTFDLTTSQLLKQVEIPHDVAVNATTGKGRLSSLAVQSLDCNTNSDTMVYIADEKGEGLIVYHNSDDSFHRLTSNTFDYDPKFTKMTIDGESYTAQDGISGMALSPMTNNLYYSPVASTSLYYVNTEQFRTSDYQQNDIHYEGVQNILDTQSSAKVVSKSGVLFFGLVGDSALGCWNEHRTLERHNIRTVAQSDETLQMIASMKIKEALPHVPIFDRYINREYILVLSNKMQKMVNNDFNFDDVNFRIMNANVNELILNTRCENPDNDRTPFKISIHL
modifications: native hexamer

Hydrolysis by Cathepsin B (Cathepsin B): readily degraded
B2: monomeric form of royalactin: unmodified monomeric MRJP1 (royalactin) (protein)
chain: NILRGESLNKSLPILHEWKFFDYDFGSDERRQDAILSGEYDYKNNYPSDIDQWHDKIFVTMLRYNGVPSSLNVISKKVGDGGPLLQPYPDWSFAKYDDCSGIVSASKLAIDKCDRLWVLDSGLVNNTQPMCSPKLLTFDLTTSQLLKQVEIPHDVAVNATTGKGRLSSLAVQSLDCNTNSDTMVYIADEKGEGLIVYHNSDDSFHRLTSNTFDYDPKFTKMTIDGESYTAQDGISGMALSPMTNNLYYSPVASTSLYYVNTEQFRTSDYQQNDIHYEGVQNILDTQSSAKVVSKSGVLFFGLVGDSALGCWNEHRTLERHNIRTVAQSDETLQMIASMKIKEALPHVPIFDRYINREYILVLSNKMQKMVNNDFNFDDVNFRIMNANVNELILNTRCENPDNDRTPFKISIHL

B3: MGO-modified MRJP3: major royal jelly protein 3 chemically modified by methylglyoxal (protein, UniProt Q17060 21-544, looked up)
Major royal jelly protein 3: AAVNHQRKSANNLAHSMKVIYEWKHIDFDFGSDERRDAAIKSGEFDHTKNYPFDVDRWRDKTFVTIERNNGVPSSLNVVTNKKGKGGPLLRPYPDWSFAKYEDCSGIVSAFKIAVDKFDRLWVLDSGLVNNNQPMCSPKLLTFDLKTSKLVKQVEIPHNIAVNATTGMGELVSLAVQAIDRTNTMVYIADEKGEGLIMYQNSDDSFHRLTSNTFDYDPRYTKLTVAGESFTVKNGIYGIALSPVTNNLYYSPLLSHGLYYVDTEQFSNPQYEENNVQYEGSQDILNTQSFGKVVSKNGVLFLGLVGNSGIACVNEHQVLQRESFDVVAQNEETLQMIVSMKIMENLPQSGRINDPEGNEYMLALSNRMQKIINNDFNFNDVNFRILGANVDDLMRNTRCGRYHNQNAGNQNADNQNADNQNANNQNADNQNANKQNGNRQNDNRQNDNKQNGNRQNDNKQNGNRQNDNKQNGNRQNGNKQNDNKQNGNRQNDNKRNGNRQNDNQNNQNDNNRNDNQVHHSSKLH
modifications: methylglyoxal-modified
notes: major royal jelly protein 3 chemically modified by methylglyoxal
Anti-inflammatory activity [1]: enhanced anti-inflammatory properties
